B1: OR4K15 (parent)
chain: GUUAACGGUCAUAGGCCAUGGAAACUAGGAGCACCAUUUCGCUGCCAGUGAAGAAAUGAACAAAGAAAAUCUGGGCCAGGCAGGCAUCAAAAGAAAUAGUCUUGCGCUCAACCAGAAAGUCUGUAAUCAUUUUAAGGGUA

Variants of: B1
Experiment: self-cleavage, relative activity (ratio to wild type); higher = more cleavage; in vitro, sequencing; the parent is a self-cleaving ribozyme

First: A78U U103C
Second: C42G A51G
The self-cleavage of the first is lower: 0.06 for the first, 1.47 for the second.

Going from U39A A94G to C40A U49C, the self-cleavage rises from 1.47 to 1.85.

Compared with U57A U139A, U57A A125U is higher in self-cleavage: 0.91 for the first, 1.1 for the second.

Going from A59G A92G to A30U U39A, the self-cleavage rises from 1.22 to 2.07.

First: A66C A95G
Second: U38G A62U
The self-cleavage of the first is higher: 1.92 for the first, 1.41 for the second.

Compared with A52G U132C, C61U A86G is lower in self-cleavage: 1.84 for the first, 1.72 for the second.

First: G1U A54G
Second: U72C C105A
The self-cleavage of the first is higher: 1.44 for the first, 0.03 for the second.

Compared with U9G U72A, A89U U139A is higher in self-cleavage: 0.19 for the first, 1.49 for the second.

First: A117G G138C
Second: A69U A126C
The self-cleavage of the first is higher: 2.13 for the first, 1.66 for the second.

Going from U102C A140G to A59U U131A, the self-cleavage falls from 2.39 to 0.84.

Compared with A24U U26C, A18U C128U is lower in self-cleavage: 2.46 for the first, 1.55 for the second.

First: A67G A78U
Second: U39C A59G
The self-cleavage of the first is lower: 0.33 for the first, 1.51 for the second.

Going from C45U A140G to C34U G44A, the self-cleavage rises from 1.42 to 1.66.

Compared with A51U U120C, U26A A47G is higher in self-cleavage: 0.47 for the first, 0.94 for the second.

Compared with A56G A116G, A66G U102A is higher in self-cleavage: 0.66 for the first, 0.89 for the second.

First: G48A A126G
Second: A27G G48U
The self-cleavage of the first is higher: 1.15 for the first, 0.5 for the second.

First: A33U C34A
Second: A52G A96G
The self-cleavage of the first is higher: 1.81 for the first, 1.64 for the second.

First: G83A A117U
Second: G74U U87A
The self-cleavage of the first is higher: 1.21 for the first, 0.15 for the second.

First: A96U
Second: U120C C128A
The self-cleavage of the first is higher: 1.88 for the first, 0.69 for the second.

Compared with C46G, A60U C113U is lower in self-cleavage: 1.46 for the first, 0.27 for the second.

Going from A36U A78G to A52G A64G, the self-cleavage rises from 0.21 to 0.9.

Compared with G21U G65A, G93A is higher in self-cleavage: 1.96 for the first, 2.17 for the second.

Going from G84U A110U to A60G A95G, the self-cleavage rises from 0.44 to 1.63.

Going from G14A U122A to A23G A118G, the self-cleavage falls from 1.16 to 0.75.

First: U19C G31A
Second: A24G A140U
The self-cleavage of the first is lower: 0.83 for the first, 0.89 for the second.

Compared with A67C A125G, A60U A117U is higher in self-cleavage: 0.85 for the first, 1.11 for the second.

Compared with A36C A111G, A30C U38C is higher in self-cleavage: 0.02 for the first, 1.02 for the second.

Going from U49C A111G to A47U U102G, the self-cleavage rises from 0.02 to 0.28.

Going from U3C A54C to U70C G83A, the self-cleavage rises from 0.51 to 1.57.

Going from A24G A92G to C45A, the self-cleavage rises from 1.19 to 1.6.

Compared with G7U U19C, A55G U108G is lower in self-cleavage: 1.79 for the first, 0.03 for the second.

First: A55U U57G
Second: U38C G80U
The self-cleavage of the first is higher: 1.54 for the first, 0.06 for the second.

First: C40U A114G
Second: A11U U132C
The self-cleavage of the first is lower: 0.5 for the first, 0.89 for the second.

Going from A24G A54G to A24C U103C, the self-cleavage rises from 1.12 to 1.38.

Going from A36C U87A to A33C A69G, the self-cleavage falls from 2.59 to 1.71.

Compared with A23U A66G, A11G A96C is lower in self-cleavage: 1.16 for the first, 0.82 for the second.

Going from A78G A129U to A27U U87A, the self-cleavage rises from 0.25 to 1.48.

Going from U38A A92G to U100C U132A, the self-cleavage falls from 1.34 to 1.03.

First: U57G A95G
Second: G29A A56G
The self-cleavage of the first is higher: 2.15 for the first, 1.5 for the second.

First: A36U A98U
Second: U122C U139A
The self-cleavage of the first is higher: 2.42 for the first, 1.1 for the second.

First: G50A U133C
Second: A11U U49C
The self-cleavage of the first is higher: 1.88 for the first, 1.38 for the second.

First: A30U A60G
Second: A66U
The self-cleavage of the first is lower: 0.45 for the first, 1.36 for the second.

Compared with A110C U122G, C40U U130C is lower in self-cleavage: 0.56 for the first, 0.46 for the second.

Going from A67C U87C to A96G G106A, the self-cleavage falls from 1.79 to 0.01.

Compared with U97A U122C, U38C A92G is higher in self-cleavage: 1.83 for the first, 1.97 for the second.

Compared with A47G A59G, A55U U133A is higher in self-cleavage: 0.86 for the first, 1.58 for the second.

Compared with U108C C128U, A47G A54U is higher in self-cleavage: 0.04 for the first, 0.97 for the second.

Compared with U19A A69G, A54U U103G is lower in self-cleavage: 1.14 for the first, 0.04 for the second.

First: A11C U72A
Second: U39C G79U
The self-cleavage of the first is higher: 0.17 for the first, 0.1 for the second.

Going from A5G A94G to A82U A111U, the self-cleavage falls from 1 to 0.04.

First: A52G U139A
Second: A110C A125G
The self-cleavage of the first is higher: 1.5 for the first, 0.11 for the second.

Going from C77U C113U to A51U C101U, the self-cleavage rises from 0.27 to 0.72.

Compared with U9C A92C, A36G A92U is lower in self-cleavage: 2.26 for the first, 0.99 for the second.

First: G7A U108C
Second: A11U G29A
The self-cleavage of the first is lower: 0 for the first, 0.94 for the second.

First: U38A A78G
Second: A36U G123A
The self-cleavage of the first is lower: 0.26 for the first, 1.73 for the second.

Going from A22G A82U to U38A U108C, the self-cleavage falls from 0.36 to 0.01.

Going from G106A A118U to A23G A95U, the self-cleavage rises from 0 to 2.26.

Going from U87C A111C to G14A A18U, the self-cleavage rises from 0.02 to 0.99.

Going from U120C A125U to A64G C121G, the self-cleavage rises from 1.38 to 2.89.

First: U120A U127C
Second: U43C A69G
The self-cleavage of the first is higher: 1.67 for the first, 0.94 for the second.

Going from A86G U108C to A78C A96G, the self-cleavage rises from 0.02 to 0.27.

First: A89G U100A
Second: U9C A66G
The self-cleavage of the first is lower: 0.5 for the first, 0.9 for the second.

Going from G31A A86U to A63G A86C, the self-cleavage rises from 0.91 to 1.21.

First: A55C A59U
Second: A52G A98G
The self-cleavage of the first is higher: 1.8 for the first, 0.8 for the second.

First: G44A U131C
Second: C32A A90G
The self-cleavage of the first is higher: 1.53 for the first, 1.27 for the second.

Going from A55G G74U to U37G A52G, the self-cleavage rises from 0.1 to 1.48.

Compared with A95C U124C, A82U U108C is lower in self-cleavage: 0.32 for the first, 0.01 for the second.

Compared with U19C U133C, A24G U72A is lower in self-cleavage: 2.01 for the first, 0.28 for the second.

Going from U70C A94U to G50U A51U, the self-cleavage rises from 0.2 to 1.95.

Going from A51G U70C to G29A U87C, the self-cleavage rises from 0.95 to 1.7.

First: G20A A95U
Second: U9C A135G
The self-cleavage of the first is higher: 1.89 for the first, 1.5 for the second.

Compared with C40U U120C, A69C A114G is lower in self-cleavage: 1.32 for the first, 0.21 for the second.

Compared with A78G C81A, U43C G123A is higher in self-cleavage: 0.1 for the first, 2.35 for the second.

Going from U9C A78U to U108A U132A, the self-cleavage falls from 0.56 to 0.01.

Compared with A4G C10U, A30U C107A is lower in self-cleavage: 0.76 for the first, 0.01 for the second.

Going from A89U A117G to A5C A56G, the self-cleavage falls from 2.46 to 1.05.

Compared with G28U U49A, A13G U139C is lower in self-cleavage: 2.04 for the first, 1.13 for the second.

Compared with A27U A116G, U19A G48A is higher in self-cleavage: 0.63 for the first, 1.35 for the second.

First: A54C A64G
Second: A5G A116U
The self-cleavage of the first is higher: 1.36 for the first, 0.25 for the second.

Going from U2C A33G to U9A A69G, the self-cleavage rises from 0.74 to 1.27.

Going from C16U U102C to A55U U102C, the self-cleavage falls from 2.01 to 1.73.

Going from U39A A55G to A117G U124C, the self-cleavage falls from 1.53 to 0.69.

First: U72A U87A
Second: A11G C112U
The self-cleavage of the first is higher: 0.37 for the first, 0.05 for the second.

With A47C U49G the self-cleavage was 1.78.

— the RNAGym collection of RNA variant scans (doi:10.7554/elife.90254)
